One molecule from patent US20140056903A1 (Regeneron, published 2014) can be followed below.

The assay has as its target T1, human GFRα3 expressed with a C-terminal mFc tag (human).
T1 construct: also called hGFRα3-mFc
T1 chain: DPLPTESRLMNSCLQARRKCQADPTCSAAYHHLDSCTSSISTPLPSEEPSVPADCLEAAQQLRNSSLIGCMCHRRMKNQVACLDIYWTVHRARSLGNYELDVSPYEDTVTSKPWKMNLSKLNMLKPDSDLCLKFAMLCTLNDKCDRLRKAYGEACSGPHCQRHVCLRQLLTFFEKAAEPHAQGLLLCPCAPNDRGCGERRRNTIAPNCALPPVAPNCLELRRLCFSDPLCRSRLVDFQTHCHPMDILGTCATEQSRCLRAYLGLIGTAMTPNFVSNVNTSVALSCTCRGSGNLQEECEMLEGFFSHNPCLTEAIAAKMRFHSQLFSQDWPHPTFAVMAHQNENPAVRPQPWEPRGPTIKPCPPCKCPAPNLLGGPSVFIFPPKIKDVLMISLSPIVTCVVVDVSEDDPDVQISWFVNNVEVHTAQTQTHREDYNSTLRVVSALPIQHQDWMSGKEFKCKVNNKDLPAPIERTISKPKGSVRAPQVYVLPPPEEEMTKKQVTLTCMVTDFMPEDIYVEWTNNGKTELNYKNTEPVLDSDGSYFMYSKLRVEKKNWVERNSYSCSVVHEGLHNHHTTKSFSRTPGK
In words: SPR, Ab captured, 25C; 25° C. For orientation: Surface plasmon resonance follows binding to a sensor surface in real time, without labels.

In general, koff refers to a measure of how fast the partners let go of each other. A lower koff goes with slow dissociation.

B1: H4H2292S (antibody, human IgG4, V domains shown)
VH: EVQLVESGGGVVQPGRSLRLSCAASGFTFSSYGMHWVRQAPGKGLEWVSFIWYDGSNKYYADSVKGRFTISRDNSKNTLYLQMNSLTAEDTAVYYCARRGILTGTTAFDIWGQGTMVTVSS
VL: DIQMTQSPSSLSASVGDRVTITCRASQSISSYLNWYQQKPGKAPKLLIYAASSLQSGVPSRFSGSGSGTDFTLTIRSLIPEDFATYYCQQTYNTPFTFGPGTKVEIK
notes: human IgG4 Fc (H4H)
B1 showed a koff not above 1e-06 s⁻¹.
